Measured values: patent publication US20130012451

Target: CD44, P16070
Sequence (P16070 other isoform, or with tags, fused parts or gaps): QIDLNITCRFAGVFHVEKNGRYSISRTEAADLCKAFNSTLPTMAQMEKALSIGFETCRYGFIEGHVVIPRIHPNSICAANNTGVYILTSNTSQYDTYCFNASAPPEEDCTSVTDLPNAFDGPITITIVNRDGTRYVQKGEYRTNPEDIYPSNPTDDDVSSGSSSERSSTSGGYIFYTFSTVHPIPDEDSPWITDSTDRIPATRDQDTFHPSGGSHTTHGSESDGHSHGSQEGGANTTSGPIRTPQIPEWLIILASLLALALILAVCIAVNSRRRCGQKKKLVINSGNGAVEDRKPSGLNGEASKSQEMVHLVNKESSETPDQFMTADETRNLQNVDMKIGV

B1: Matrix Metalloproteinase-9 (MMP-9), wild type (protein)
chain: APRQRQSTLVLFPGDLRTNLTDRQLAEEYLYRYGYTRVAEMRGESKSLGPALLLLQKQLSLPETGELDSATLKAMRTPRCGVPDLGRFQTFEGDLKWHHHNITYWIQNYSEDLPRAVIDDAFARAFALWSAVTPLTFTRVYSRDADIVIQFGVAEHGDGYPFDGKDGLLAHAFPPGPGIQGDAHFDDDELWSLGKGVVVPTRFGNADGAACHFPFIFEGRSYSACTTDGRSDGLPWCSTTANYDTDDRFGFCPSERLYTQDGNADGKPCQFPFIFQGQSYSACTTDGRSDGYRWCATTANYDRDKLFGFCPTRADSTVMGGNSAGELCVFPFTFLGKEYSTCTSEGRGDGRLWCATTSNFDSDKKWGFCPDQGYSLFLVAAHEFGHALGLDHSSVPEALMYPMYRFTEGPPLHKDDVNGIRHLYGPRPEPEPRPPTTTTPQPTAPPTVCPTGPPTVHPSERPTAGPTGPPSAGPTGPPTAGPSTATTVPLSPVDDACNVNIFDAIAEIGNQLYLFKDGKYWRFSEGRGSRPQGPFLIADKWPALPRKLDSVFEERLSKKLFFFSGRQVWVYTGASVLGPRRLDKLGLGADVAQVTGALRSGRGKMLLFSGRRLWRFDVKAQMVDPRSASEVDRMFPGVPLDTHDVFQYREKAYFCQDRFYWRVSSRSELNQVDQVGYVTYDILQCPED
- phosphorylation of EGFR, western blotting: expression of MMP-9 in wild type COS-1 cells resulted in increased phosphorylation of EGFR as compared to vector control. This activation of EGFR did not occurred in CD44-silenced COS-1 cells transfected with MMP-9 cDNA
